Assay results taken from US20240425569A1 (VISTERRA, published 2024).
Residue numbers refer to the chain shown, from its start. Read-outs that look alike come from different tables or passages of the source.

How the values were obtained:
[1] = molecular target: T1, EDIII-DV4 (E protein domain III of dengue virus serotype DV-4) (dengue virus serotype DV-4, UniProt P09866 572-679); assay: competition ELISA; column 'EDIII-DV4 [1/7]'
T1 construct: also called DENV-4

[2] = molecular target: T2, Peru/1995 (serotype II EDIII); assay: Kd table, method not stated; Ag DENV-2 Peru
T2 construct: also called ED3-DV2/Peru95; DENV-2 Peru

[3] = molecular target: T3, Singapore/2008 (serotype II EDIII); assay: Kd table, method not stated; Ag DENV-2 Sing
T3 construct: also called ED3-DV2/Sing08; DENV-2 Sing

[4] = molecular target: ED3-DV4/H241/Phil56 (EDIII of DENV-4 strain H241) (dengue virus serotype DENV-4, strain …, UniProt Q58HT7 572-679); assay: Kd table, method not stated; Ag DENV-4 Phil
[5] = molecular target: T4, Brazil/2011 (serotype IV EDIII); assay: ELISA; row Brazil/2011, serotype IV, genotype I
T4 E protein domain III (EDIII): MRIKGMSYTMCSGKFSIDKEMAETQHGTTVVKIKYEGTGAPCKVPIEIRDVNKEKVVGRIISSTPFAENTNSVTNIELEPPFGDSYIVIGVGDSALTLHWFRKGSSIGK

[6] = molecular target: T5, Malaysia/2005 (serotype I EDIII)
T5 construct: also called ED3-DV1/Malaysia05
T5 E protein domain III (EDIII): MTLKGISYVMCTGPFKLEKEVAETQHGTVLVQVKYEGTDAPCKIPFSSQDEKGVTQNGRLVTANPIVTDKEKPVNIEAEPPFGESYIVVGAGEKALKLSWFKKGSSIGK

[7] = molecular target: T6, Singapore/2009 (serotype III EDIII)
T6 construct: also called ED3-DV3/Sing09; DENV-3 Sing
T6 E protein domain III (EDIII): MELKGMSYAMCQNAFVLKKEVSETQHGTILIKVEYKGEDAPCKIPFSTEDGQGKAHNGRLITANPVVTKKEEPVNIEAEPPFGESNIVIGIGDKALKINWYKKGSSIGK

[8] = molecular target: T7, Thailand/1997 (serotype IV EDIII); assay: SPR; row Thailand/1997, serotype IV, genotype III
T7 E protein domain III (EDIII): T4 E protein domain III (EDIII) with K19R, I33V, N69S

[9] = molecular target: T2, Peru/1995 (serotype II EDIII); assay: SPR; row Peru/1995, serotype II, genotype American
[10] = molecular target: T8, Venezuela/2008 (serotype IV EDIII); assay: SPR; row Venezuela/2008, serotype IV, genotype IIa
T8 E protein domain III (EDIII): T4 E protein domain III (EDIII) with I33V, T38A, I60V, S63A, F66L, D93N

[11] = molecular target: T9, Cambodia/2008 (serotype III EDIII); assay: ELISA; row Cambodia/2008, serotype III, genotype II
T9 construct: Genotype II; also called ED3-DV3/Cambodia08
T9 E protein domain III (EDIII): T6 E protein domain III (EDIII) with Q12L, A14T, N57S

[12] = molecular target: T10, Singapore/2010 (serotype IV EDIII); assay: ELISA; row Singapore/2010, serotype IV, genotype IIb
T10 construct: also called ED3-DV4/Sing10; DENV-4 Sing
T10 E protein domain III (EDIII): T4 E protein domain III (EDIII) with I33V, T38A

[13] = molecular target: T11, Nicaragua/2010 (serotype III EDIII)
T11 construct: also called ED3-DV3/Nicaragua10; DENV-3 Nic
T11 E protein domain III (EDIII): T6 E protein domain III (EDIII) with Q12T, A14T, A40V, K94N

[14] = molecular target: T12, Vietnam/2007 (serotype II EDIII); assay: SPR; row Vietnam/2007, serotype II, genotype Asian II
T12 construct: Genotype Asian II; also called ED3-DV2/Viet07
T12 E protein domain III (EDIII): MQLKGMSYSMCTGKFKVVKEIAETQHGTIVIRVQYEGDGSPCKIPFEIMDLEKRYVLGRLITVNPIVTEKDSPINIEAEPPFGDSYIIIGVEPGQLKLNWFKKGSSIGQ

[15] = molecular target: T13, Puerto Rico/1977 (serotype III EDIII); assay: ELISA; row Puerto Rico/1977, serotype III, genotype IV
T13 construct: Genotype IV; also called ED3-DV3/PuertoRico77
T13 E protein domain III (EDIII): T6 E protein domain III (EDIII) with Q12S, N13G, A14T, V33I, G51A, I91T, K97R

[16] = molecular target: T12, Vietnam/2007 (serotype II EDIII); assay: ELISA; row Vietnam/2007, serotype II, genotype Asian II
[17] = molecular target: T1, EDIII-DV4 (E protein domain III of …)
[18] = molecular target: T14, Venezuela/2007 (serotype II EDIII); assay: ELISA; row Venezuela/2007, serotype II, genotype SE-Asian/American
T14 construct: also called ED3-DV2/Venezuela07
T14 E protein domain III (EDIII): T12 E protein domain III (EDIII) with V17I, V33I, M49T, Y55H, T68I, I74V

B1: antibody D88 (antibody, V domains shown)
VH: QVQLVQSGAEVKKPGASVKVSCKAGFNIKDVYMSWVRQAPEQGLEWMGRIDPENGDTKYDPKLQGRVTMTADTSTNTAYMELRSLRSDDTAVYYCARGWEGFAYWGQGTLVTVSS
VL: DIVMTQSPASLAVSLGERATISCRASENVDKYGNSFMHWYQQKPGQPPKLLIYRASELQWGVPDRFSGSGSGTDFTLTISSLQAEDVAVYYCQRSNEVPWTFGQGTKLEIK
notes: also called mAb D88
[1]
  Kd: 3.12 nM
[2]
  Kd: < 0.1 nM
[3]
  Kd: < 0.1 nM
[4]
  Kd: 148 nM
[5]
  Kd: 14.7 nM
[6]
  Kd: 0.064 nM
[7]
  Kd: 0.61 nM
[8]
  Kd: > 300 nM
[9]
  Kd: 0.012 nM
[10]
  Kd: 3.03 nM
[11]
  Kd: 1.32 nM
[12]
  Kd: 8.43 nM
[13]
  Kd: 3.36 nM
[14]
  Kd: 0.014 nM
[15]
  Kd: 1.36 nM
[16]
  Kd: < 0.1 nM
[17]
  Kd: 3.8 nM
[18]
  Kd: < 0.1 nM
